Holding throughout (test): REVEAL MHC-peptide binding
Assay [1] addresses HLA-A11.
Assay [2] deals with HLA-A1.
For assay [3], the target named is HLA-A24.
Assay [4] deals with HLA-A29.
For assay [5], the target named is HLA-A2.
In assay [6] the target is HLA-A3.
For assay [7], the target named is HLA-B14.
The target in assay [8] is HLA-B15.
Assay [9] addresses HLA-B27.
Assay [10] has as its target HLA-B35.
The target in assay [11] is HLA-B7.
The target of assay [12] is HLA-B8.

As to AEL[Nle]GYIPL (peptide), the % of positive control in assay [1] was 3.61%; in assay [2], 16.6%; in assay [3], 0.37%; in assay [4] it was 20.8%; in assay [5], 7.49%; in assay [6] it was 3.05%. The % of positive control is 0.12% in assay [7]; 10.2% in assay [8]; 0.77% in assay [9]; 1.91% in assay [10]; 1.11% in assay [11]; 14.7% in assay [12].
Consider L[Nle]GYIPLIG (peptide), for which the % of positive control in assay [1] was 2.48%; in [2], 14.3%; in [3], 0.71%; in [4], 25.9%; in assay [5], 49.5%; in assay [6] it was 3.98%. Also, the % of positive control in assay [7] came to 0.15%; in assay [8], 14.6%; in assay [9], 0.73%; in [10], 2.85%; in assay [11] it was 0.89%; in [12], 17.3%.
EL[Nle]GYIPLI (peptide): the % of positive control in [1] worked out at 3.21%; in [2] it was 18.3%; in [3], 0.92%; in assay [4], 20.9%; in [5], 97.9%; in assay [6], 4.54%. In addition, the % of positive control in assay [7] was found to be 0.14%; in [8], 8.91%; in [9], 0.67%; in assay [10], 2.55%; in assay [11], 0.68%; in assay [12] it was 17.1%.
Consider [Nle]GYIPLIGA (peptide), for which the % of positive control was 7.27% in assay [1]; 17.9% in assay [2]; 1.33% in assay [3]; 27.9% in assay [4]; 10.4% in assay [5]; 3.13% in assay [6]. Also, the % of positive control in assay [7] amounted to 0.29%; in assay [8], 11.1%; in [9], 1.42%; in assay [10] it was 5.89%; in assay [11], 1.78%; in [12], 21.4%.
On to P[Cit]IGVRAT[Cit] (peptide), for which the % of positive control worked out at 1.72% in assay [1]; 18.8% in assay [2]; 0.21% in [3]; 14.1% in assay [4]; 7.36% in assay [5]; 2.52% in [6]. The % of positive control came to 0.19% in assay [7]; 12.6% in [8]; 0.94% in assay [9]; 2.45% in assay [10]; 1.91% in assay [11]; 9.47% in assay [12].
With GP[Cit]IGVRAT (peptide), the % of positive control in assay [1] amounted to 2.72%; in assay [2], 18.6%; in assay [3] it was 0.16%; in [4], 11.9%; in assay [5], 9.16%; in [6], 3.48%. In addition, the % of positive control in assay [7] is 0.13%; in [8], 7.29%; in [9], 0.59%; in assay [10] it was 2.25%; in [11] it was 5.38%; in [12] it was 9.99%.
As to [Cit]IGVRAT[Cit]R (peptide), the % of positive control in assay [1] came out at 8.27%; in assay [2], 19.7%; in assay [3] it was 0.5%; in assay [4], 16.7%; in assay [5], 8.17%; in assay [6], 25.2%. The % of positive control amounted to 0.17% in [7]; 14.4% in [8]; 0.86% in assay [9]; 8.51% in [10]; 14.6% in assay [11]; 12.1% in assay [12].

(Values after patent US20130337002A1.)
